Each block holds one sequence with its values, some of them ahead of it.
Key:
HLA-B*15:02 = experiment: IEDB peptide-MHC binding, purified MHC/direct/fluorescence; filed as Kd, often an IC50 or EC50 that approximates it; ≥ and ≤ were set here for values at or beyond the usual limits of such assays; details: source organism: dengue virus type 3
HLA-B*46:01 = experiment: as above
HLA-A*01:01 [1] = experiment: as above; details: source organism: Influenza A virus (A/tern/Australia/1/04(H2N5))
HLA-A*02:01 [2] = experiment: as above
HLA-A*02:03 = experiment: as above
HLA-A*02:06 = experiment: as above; details: source organism: Influenza A virus(A/swine/Henan/2/2004(H9N2))
HLA-A*02:11 = experiment: as above
HLA-A*02:12 = experiment: as above
HLA-A*02:16 = experiment: as above; details: source organism: Influenza A virus(A/swine/Henan/2/2004(H9N2))
HLA-A*02:19 = experiment: as above
HLA-A*03:01 [3] = experiment: as above; details: source organism: Influenza A virus (A/tern/Australia/1/04(H2N5))
HLA-A*11:01 [4] = experiment: as above; details: source organism: Influenza A virus (A/tern/Australia/1/04(H2N5))
HLA-A*24:02 [5] = experiment: as above; details: source organism: Influenza A virus (A/tern/Australia/1/04(H2N5))
HLA-B*07:02 [6] = experiment: as above
HLA-B*08:01 [7] = experiment: as above; details: source organism: Influenza A virus (A/tern/Australia/1/04(H2N5))
HLA-B*15:01 = experiment: as above; details: source organism: Influenza A virus (A/tern/Australia/1/04(H2N5))
HLA-B*18:01 [8] = experiment: as above; details: source organism: Influenza A virus (A/tern/Australia/1/04(H2N5))
HLA-B*27:05 = experiment: as above; details: source organism: Influenza A virus (A/tern/Australia/1/04(H2N5))
HLA-B*40:01 = experiment: as above
HLA-B*44:02 = experiment: as above; details: source organism: Influenza A virus (A/tern/Australia/1/04(H2N5))
HLA-B*58:01 [9] = experiment: as above
HLA-A*25:01 [10] = experiment: as above; details: source organism: West Nile virus strain PTRoxo
HLA-A*29:02 [11] = experiment: as above; details: source organism: West Nile virus strain PTRoxo
HLA-A*80:01 = experiment: as above; details: source organism: West Nile virus
HLA-B*51:01 [12] = experiment: as above; details: source organism: West Nile virus strain PTRoxo
HLA-A*01:01 [13] = experiment: IEDB peptide-MHC binding, purified MHC/competitive/fluorescence; filed as Kd, often an IC50 or EC50 that approximates it; ≥ and ≤ were set here for values at or beyond the usual limits of such assays; details: source organism: West Nile virus
HLA-A*01:01 [14] = experiment: IEDB peptide-MHC binding, purified MHC/competitive/fluorescence; ≥ and ≤ were set here for values at or beyond the usual limits of such assays; details: source organism: Pan troglodytes
HLA-A*02:01 [15] = experiment: as above; details: source organism: Pan troglodytes
HLA-A*03:01 [16] = experiment: as above; details: source organism: Pan troglodytes
HLA-A*11:01 [17] = experiment: as above; details: source organism: Pan troglodytes
HLA-A*24:02 [18] = experiment: as above; details: source organism: Pan troglodytes
HLA-A*25:01 [19] = experiment: as above; details: source organism: Pan troglodytes
HLA-A*29:02 [20] = experiment: as above; details: source organism: Pan troglodytes
HLA-A*31:01 = experiment: as above; details: source organism: Pan troglodytes
HLA-A*68:02 = experiment: as above; details: source organism: Pan troglodytes
HLA-B*07:02 [21] = experiment: as above; details: source organism: Pan troglodytes
HLA-B*08:01 [22] = experiment: as above; details: source organism: Pan troglodytes
HLA-B*14:02 = experiment: as above; details: source organism: Pan troglodytes
HLA-B*18:01 [23] = experiment: as above; details: source organism: Pan troglodytes
HLA-B*35:01 = experiment: as above; details: source organism: Pan troglodytes
HLA-B*37:01 = experiment: as above; details: source organism: Pan troglodytes
HLA-B*40:02 = experiment: as above; details: source organism: Pan troglodytes
HLA-B*44:03 = experiment: as above; details: source organism: Pan troglodytes
HLA-B*51:01 [24] = experiment: as above; details: source organism: Pan troglodytes
HLA-B*53:01 = experiment: as above; details: source organism: Pan troglodytes
HLA-B*58:01 [25] = experiment: as above; details: source organism: Pan troglodytes
HLA-C*14:02 = experiment: IEDB peptide-MHC binding, purified MHC/direct/fluorescence; filed as Kd, often an IC50 or EC50 that approximates it; ≥ and ≤ were set here for values at or beyond the usual limits of such assays; details: source organism: Homo sapiens
[26] = source organism: Influenza A virus(A/swine/Henan/2/2004(H9N2))
[27] = source organism: Influenza A virus (A/tern/Australia/1/04(H2N5))
[28] = source organism: West Nile virus strain PTRoxo

Sequence: GMGEAAAIF
Kd (HLA-B*15:02): 0.158 µM | Kd (HLA-B*46:01; source organism: Dengue virus 1 Singapore/S275/1990): ≥ 20 µM

Sequence: LLTEVETYV
Kd (HLA-A*01:01 [1]): ≥ 20 µM | Kd (HLA-A*02:01 [2]; source organism: Influenza A virus (A/Puerto Rico/8/34/Mount Sinai(H1N1))): 0.012 µM | Kd (HLA-A*02:03; [26]): ≤ 0.001 µM | Kd (HLA-A*02:06): ≤ 0.001 µM | Kd (HLA-A*02:11; [26]): ≤ 0.001 µM | Kd (HLA-A*02:12; [26]): ≤ 0.001 µM | Kd (HLA-A*02:16): ≤ 0.001 µM | Kd (HLA-A*02:19; [26]): 0.002 µM | Kd (HLA-A*03:01 [3]): ≥ 20 µM | Kd (HLA-A*11:01 [4]): ≥ 20 µM | Kd (HLA-A*24:02 [5]): ≥ 20 µM | Kd (HLA-B*07:02 [6]; [27]): ≥ 20 µM | Kd (HLA-B*08:01 [7]): ≥ 20 µM | Kd (HLA-B*15:01): ≥ 20 µM | Kd (HLA-B*18:01 [8]): ≥ 20 µM | Kd (HLA-B*27:05): ≥ 20 µM | Kd (HLA-B*40:01; [27]): ≥ 20 µM | Kd (HLA-B*44:02): ≥ 20 µM | Kd (HLA-B*46:01; [27]): ≥ 20 µM | Kd (HLA-B*58:01 [9]; [27]): ≥ 20 µM

Sequence: MTRGLLGSY
Kd (HLA-A*02:01 [2]; [28]): ≥ 20 µM | Kd (HLA-A*02:03; [28]): ≥ 20 µM | Kd (HLA-A*02:11; [28]): ≥ 20 µM | Kd (HLA-A*02:12; [28]): ≥ 20 µM | Kd (HLA-A*02:19; [28]): ≥ 20 µM | Kd (HLA-A*25:01 [10]): 0.009 µM | Kd (HLA-A*29:02 [11]): 0.099 µM | Kd (HLA-A*80:01): 0.173 µM | Kd (HLA-B*07:02 [6]; [28]): ≥ 20 µM | Kd (HLA-B*40:01; [28]): ≥ 20 µM | Kd (HLA-B*51:01 [12]): ≥ 20 µM | Kd (HLA-B*58:01 [9]; [28]): ≥ 20 µM | Kd (HLA-A*01:01 [13]): 0.519 µM

IC50 (HLA-A*01:01 [14]): ≥ 20 µM | IC50 (HLA-A*02:01 [15]): ≥ 20 µM | IC50 (HLA-A*03:01 [16]): ≥ 20 µM | IC50 (HLA-A*11:01 [17]): ≥ 20 µM | IC50 (HLA-A*24:02 [18]): ≥ 20 µM | IC50 (HLA-A*25:01 [19]): ≥ 20 µM | IC50 (HLA-A*29:02 [20]): 0.252 µM | IC50 (HLA-A*31:01): ≥ 20 µM | IC50 (HLA-A*68:02): ≥ 20 µM | IC50 (HLA-B*07:02 [21]): ≥ 20 µM | IC50 (HLA-B*08:01 [22]): ≥ 20 µM | IC50 (HLA-B*14:02): ≥ 20 µM | IC50 (HLA-B*18:01 [23]): ≥ 20 µM | IC50 (HLA-B*35:01): 0.0907 µM | IC50 (HLA-B*37:01): ≥ 20 µM | IC50 (HLA-B*40:02): ≥ 20 µM | IC50 (HLA-B*44:03): ≥ 20 µM | IC50 (HLA-B*51:01 [24]): ≥ 20 µM | IC50 (HLA-B*53:01): ≥ 20 µM | IC50 (HLA-B*58:01 [25]): ≥ 20 µM | Kd (HLA-C*14:02): ≥ 20 µM
Sequence: RPPYSSYGY

Reference: the Immune Epitope Database (IEDB)
